Substrate in this data set: CCCCC/C=C\C/C(=C\CCCCCCCC(=O)O[C@@H]1O[C@H](C(=O)O)[C@@H](O)[C@H](O)[C@H]1O)[N+](=O)[O-]
Briefly: TP_TRANSPORTER: vesicle uptake in MRP1-expressing membrane vesicles. The data set is classed as functional, cell membranes, MCF7/MRP1-10.

B1: Multidrug resistance-associated protein 1 (Homo sapiens) (protein)
chain: MALRGFCSADGSDPLWDWNVTWNTSNPDFTKCFQNTVLVWVPCFYLWACFPFYFLYLSRHDRGYIQMTPLNKTKTALGFLLWIVCWADLFYSFWERSRGIFLAPVFLVSPTLLGITMLLATFLIQLERRKGVQSSGIMLTFWLVALVCALAILRSKIMTALKEDAQVDLFRDITFYVYFSLLLIQLVLSCFSDRSPLFSETIHDPNPCPESSASFLSRITFWWITGLIVRGYRQPLEGSDLWSLNKEDTSEQVVPVLVKNWKKECAKTRKQPVKVVYSSKDPAQPKESSKVDANEEVEALIVKSPQKEWNPSLFKVLYKTFGPYFLMSFFFKAIHDLMMFSGPQILKLLIKFVNDTKAPDWQGYFYTVLLFVTACLQTLVLHQYFHICFVSGMRIKTAVIGAVYRKALVITNSARKSSTVGEIVNLMSVDAQRFMDLATYINMIWSAPLQVILALYLLWLNLGPSVLAGVAVMVLMVPVNAVMAMKTKTYQVAHMKSKDNRIKLMNEILNGIKVLKLYAWELAFKDKVLAIRQEELKVLKKSAYLSAVGTFTWVCTPFLVALCTFAVYVTIDENNILDAQTAFVSLALFNILRFPLNILPMVISSIVQASVSLKRLRIFLSHEELEPDSIERRPVKDGGGTNSITVRNATFTWARSDPPTLNGITFSIPEGALVAVVGQVGCGKSSLLSALLAEMDKVEGHVAIKGSVAYVPQQAWIQNDSLRENILFGCQLEEPYYRSVIQACALLPDLEILPSGDRTEIGEKGVNLSGGQKQRVSLARAVYSNADIYLFDDPLSAVDAHVGKHIFENVIGPKGMLKNKTRILVTHSMSYLPQVDVIIVMSGGKISEMGSYQELLARDGAFAEFLRTYASTEQEQDAEENGVTGVSGPGKEAKQMENGMLVTDSAGKQLQRQLSSSSSYSGDISRHHNSTAELQKAEAKKEETWKLMEADKAQTGQVKLSVYWDYMKAIGLFISFLSIFLFMCNHVSALASNYWLSLWTDDPIVNGTQEHTKVRLSVYGALGISQGIAVFGYSMAVSIGGILASRCLHVDLLHSILRSPMSFFERTPSGNLVNRFSKELDTVDSMIPEVIKMFMGSLFNVIGACIVILLATPIAAIIIPPLGLIYFFVQRFYVASSRQLKRLESVSRSPVYSHFNETLLGVSVIRAFEEQERFIHQSDLKVDENQKAYYPSIVANRWLAVRLECVGNCIVLFAALFAVISRHSLSAGLVGLSVSYSLQVTTYLNWLVRMSSEMETNIVAVERLKEYSETEKEAPWQIQETAPPSSWPQVGRVEFRNYCLRYREDLDFVLRHINVTINGGEKVGIVGRTGAGKSSLTLGLFRINESAEGEIIIDGINIAKIGLHDLRFKITIIPQDPVLFSGSLRMNLDPFSQYSDEEVWTSLELAHLKDFVSALPDKLDHECAEGGENLSVGQRQLVCLARALLRKTKILVLDEATAAVDLETDDLIQSTIRTQFEDCTVLTIAHRLNTIMDYTRVIVLDKGEIQEYGAPSDLLQQRGLFYSMAKDAGLV
For the protein B1, the Km (in general, the concentration of substrate that gives half-maximal velocity) came to 0.75 µM.

The values above are taken from ChEMBL document CHEMBL2074211, “Modulation of nitrated lipid signaling by multidrug resistance protein 1 (MRP1): glutathione conjugation and MRP1-mediated efflux inhibit nitrolinoleic acid-induced, PPARgamma-dependent transcription activation” (Biochemistry, 2006).
